Measured values reported in patent US7125658B2, “Small protein that interacts with a ribonucleotide reductase subunit and uses thereof” (The Trustees of Columbia University in the City of New York, priority 1998, dated 2006).

Biological target: T1, Recombinant mouse ribonucleotide reductase R1 protein (mouse, UniProt P07742 1-792)
T1 construct: also called mouse R1 protein
T1 sequence (looked up): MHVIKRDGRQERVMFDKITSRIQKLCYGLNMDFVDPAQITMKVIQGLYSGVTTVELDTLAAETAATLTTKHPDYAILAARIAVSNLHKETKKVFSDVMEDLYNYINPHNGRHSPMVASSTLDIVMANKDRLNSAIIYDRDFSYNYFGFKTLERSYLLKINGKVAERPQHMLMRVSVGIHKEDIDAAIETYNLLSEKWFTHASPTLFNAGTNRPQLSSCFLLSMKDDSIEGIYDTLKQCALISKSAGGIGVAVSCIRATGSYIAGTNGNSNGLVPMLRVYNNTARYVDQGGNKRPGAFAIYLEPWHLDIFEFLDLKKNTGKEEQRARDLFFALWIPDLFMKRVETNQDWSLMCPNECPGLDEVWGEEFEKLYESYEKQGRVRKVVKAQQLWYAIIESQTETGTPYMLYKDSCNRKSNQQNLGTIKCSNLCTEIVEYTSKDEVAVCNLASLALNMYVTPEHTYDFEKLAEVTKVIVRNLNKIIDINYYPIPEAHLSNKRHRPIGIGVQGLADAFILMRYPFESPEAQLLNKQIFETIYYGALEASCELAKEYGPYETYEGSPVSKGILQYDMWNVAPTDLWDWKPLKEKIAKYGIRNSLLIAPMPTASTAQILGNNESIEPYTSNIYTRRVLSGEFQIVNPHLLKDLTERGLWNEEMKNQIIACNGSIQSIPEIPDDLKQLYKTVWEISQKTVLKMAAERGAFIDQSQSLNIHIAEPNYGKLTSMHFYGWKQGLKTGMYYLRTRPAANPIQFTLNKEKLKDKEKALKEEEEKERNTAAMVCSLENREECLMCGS
Assay: BIAcore biosensor, mouse R1 protein alone at 0.1 mg/ml over immobilized Sml1p, prolonged injection, bulk effect not subtracted

B1: Recombinant yeast Sml1 protein (other)
chain: MQNSQDYFYAQNRCQQQQAPSTLRTVTMAEFRRVPLPPMAEVPMLSTQNSMGSSASASASSLEMWEKDLEERLNSIDHDMNNNKFGSGELKSMFNQGKVEEMDF
notes: Immobilized on the BIAcore chip in the biosensor experiments; also called YML058W product
Does B1 bind?
Result: binds
